Data taken from patent publication US5861491.

What was measured:
[1] = target: human serum albumin immobilized on Sepharose (human) (UniProt P02768); assay: 125I-hLF retained on HSA-Sepharose, +0.2% Tween-20 +0.25 M NaCl
[2] = target: human serum albumin immobilized on Sepharose (human) (UniProt P02768); assay: 125I-hLF retained on HSA-Sepharose, +0.2% Tween-20 +0.1% Polybrene
[3] = target: human serum albumin immobilized on Sepharose (human) (UniProt P02768); assay: 125I-hLF retained on HSA-Sepharose, +0.2% Tween-20 +2 M NaCl
[4] = target: human serum albumin immobilized on Sepharose (human) (UniProt P02768); assay: 125I-hLF retained on HSA-Sepharose, 10 mM sodium phosphate, 0.15M NaCl, pH 7.4, no addition
[5] = target: human serum albumin immobilized on Sepharose (human) (UniProt P02768); assay: 125I-hLF retained on HSA-Sepharose, +0.2% Tween-20
[6] = target: human serum albumin immobilized on Sepharose (human) (UniProt P02768); assay: 125I-hLF retained on HSA-Sepharose, +0.2% Tween-20 +0.5 M NaCl
[7] = target: caseins (casein fraction of whole bovine milk); assay: co-sedimentation of bLF with the casein pellet of whole cow milk (centrifugation only, no addition), bLF read by competitive inhibition RIA

Row | percentage binding [1] | percentage binding [2] | percentage binding [3] | percentage binding [4] | percentage binding [5] | percentage binding [6] | % of total bLF found in casein fraction [7] | Substance
1 | 4% | 4% | 4% | 8% | 9% | 3% |  | 125I-labelled human lactoferrin (from UniProt P02788)
2 |  |  |  |  |  |  | 21% | bovine lactoferrin (from UniProt P24627)
